Measurements: publication PMC5787837

Tests used:
[1] = target: HFBII–Protein A fusion protein (Trichoderma reesei | Staphylococcus aureus); assay: QCM-D (quartz crystal microbalanc); conditions: scale: moles of rituximab per mole of immobilized HFBII–Protein A
[2] = target: HFBI–Protein A fusion protein (Trichoderma reesei | Staphylococcus aureus); assay: QCM-D (quartz crystal microbalanc); conditions: scale: moles of rituximab per mole of immobilized HFBI–Protein A
[3] = target: commercial Protein A (Sigma-Aldrich) (Staphylococcus aureus) (UniProt P38507); assay: QCM-D (quartz crystal microbalance with dissipation monitoring)

## rituximab (antibody)
[1]
  stoichiometry N: 1.2
[2]
  stoichiometry N: 1.5
[3]
  stoichiometry N: 1.2
